What was measured:
[1] = target: T1, recombinant human integrin αvβ8 ectodomain (human, UniProt P06756 31-992; P26012 43-681); assay: cell-based or functional assay
[2] = target: T1, recombinant human integrin αvβ8 …; assay: cell-based or functional assay; remark: listed apart in the source
[3] = target: T1, recombinant human integrin αvβ8 …; assay: cell-based or functional assay; remark: listed apart in the source
[4] = target: T2, integrin αvβ5 ectodomain (immobilized) (Homo sapiens (Human), UniProt P06756 31-992; P18084 24-719); assay: binding to immobilized integrin ectodomains blocked with BSA
T2 construct: R&D Systems; copies: 1 + 1
T2 sequence (P06756 31-992 limits assumed, chain 1 of 2): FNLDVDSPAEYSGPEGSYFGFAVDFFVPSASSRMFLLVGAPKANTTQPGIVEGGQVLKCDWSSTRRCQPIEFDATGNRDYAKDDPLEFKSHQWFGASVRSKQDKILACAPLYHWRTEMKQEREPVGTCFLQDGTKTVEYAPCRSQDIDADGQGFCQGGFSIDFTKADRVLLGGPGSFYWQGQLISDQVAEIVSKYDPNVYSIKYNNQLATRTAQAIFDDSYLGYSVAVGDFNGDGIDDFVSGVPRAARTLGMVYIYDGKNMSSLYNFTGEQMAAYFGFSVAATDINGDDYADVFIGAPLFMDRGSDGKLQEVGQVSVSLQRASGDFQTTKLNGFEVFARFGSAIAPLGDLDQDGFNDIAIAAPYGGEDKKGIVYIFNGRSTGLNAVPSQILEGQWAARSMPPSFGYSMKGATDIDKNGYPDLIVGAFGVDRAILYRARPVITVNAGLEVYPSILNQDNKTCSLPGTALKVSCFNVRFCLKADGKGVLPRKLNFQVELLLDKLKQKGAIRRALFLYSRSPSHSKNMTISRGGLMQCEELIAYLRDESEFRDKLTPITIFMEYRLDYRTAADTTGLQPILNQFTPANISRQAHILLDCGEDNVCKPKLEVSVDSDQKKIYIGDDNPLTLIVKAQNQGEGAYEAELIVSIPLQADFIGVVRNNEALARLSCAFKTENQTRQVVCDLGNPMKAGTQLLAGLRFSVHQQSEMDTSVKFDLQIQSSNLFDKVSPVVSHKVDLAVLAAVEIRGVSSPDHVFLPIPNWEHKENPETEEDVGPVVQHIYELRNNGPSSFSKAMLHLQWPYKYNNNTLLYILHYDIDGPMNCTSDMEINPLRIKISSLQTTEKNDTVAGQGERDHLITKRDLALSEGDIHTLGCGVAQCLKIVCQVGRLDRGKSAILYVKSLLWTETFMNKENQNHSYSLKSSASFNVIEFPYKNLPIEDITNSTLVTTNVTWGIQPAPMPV
T2 sequence (P18084 24-719 limits assumed, chain 2 of 2): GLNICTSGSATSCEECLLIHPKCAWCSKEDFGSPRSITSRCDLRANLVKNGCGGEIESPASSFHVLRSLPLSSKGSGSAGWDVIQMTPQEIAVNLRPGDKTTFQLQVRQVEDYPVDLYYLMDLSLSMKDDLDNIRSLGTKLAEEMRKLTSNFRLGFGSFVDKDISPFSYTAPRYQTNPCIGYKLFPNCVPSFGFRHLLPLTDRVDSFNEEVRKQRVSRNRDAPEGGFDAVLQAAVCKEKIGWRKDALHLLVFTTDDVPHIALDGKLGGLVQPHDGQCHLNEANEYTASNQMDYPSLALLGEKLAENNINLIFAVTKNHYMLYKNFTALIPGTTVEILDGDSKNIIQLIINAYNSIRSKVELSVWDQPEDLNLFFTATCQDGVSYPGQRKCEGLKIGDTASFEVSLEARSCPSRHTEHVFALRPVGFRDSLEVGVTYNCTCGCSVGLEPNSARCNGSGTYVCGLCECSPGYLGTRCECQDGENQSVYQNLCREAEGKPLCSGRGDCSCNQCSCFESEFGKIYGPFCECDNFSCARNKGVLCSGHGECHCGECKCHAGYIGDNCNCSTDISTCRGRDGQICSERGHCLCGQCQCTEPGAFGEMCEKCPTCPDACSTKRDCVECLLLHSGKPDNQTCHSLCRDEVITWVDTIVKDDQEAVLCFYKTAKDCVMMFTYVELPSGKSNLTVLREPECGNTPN

[5] = target: T3, integrin αvβ1 ectodomain (immobilized) (Homo sapiens (Human), UniProt P06756 31-992; P05556 21-728); assay: as above
T3 construct: R&D Systems; copies: 1 + 1
T3 sequence (P06756 31-992 limits assumed, chain 1 of 2): as the sequence (P06756 31-992 limits assumed, chain 1 of 2) above
T3 sequence (P05556 21-728 limits assumed, chain 2 of 2): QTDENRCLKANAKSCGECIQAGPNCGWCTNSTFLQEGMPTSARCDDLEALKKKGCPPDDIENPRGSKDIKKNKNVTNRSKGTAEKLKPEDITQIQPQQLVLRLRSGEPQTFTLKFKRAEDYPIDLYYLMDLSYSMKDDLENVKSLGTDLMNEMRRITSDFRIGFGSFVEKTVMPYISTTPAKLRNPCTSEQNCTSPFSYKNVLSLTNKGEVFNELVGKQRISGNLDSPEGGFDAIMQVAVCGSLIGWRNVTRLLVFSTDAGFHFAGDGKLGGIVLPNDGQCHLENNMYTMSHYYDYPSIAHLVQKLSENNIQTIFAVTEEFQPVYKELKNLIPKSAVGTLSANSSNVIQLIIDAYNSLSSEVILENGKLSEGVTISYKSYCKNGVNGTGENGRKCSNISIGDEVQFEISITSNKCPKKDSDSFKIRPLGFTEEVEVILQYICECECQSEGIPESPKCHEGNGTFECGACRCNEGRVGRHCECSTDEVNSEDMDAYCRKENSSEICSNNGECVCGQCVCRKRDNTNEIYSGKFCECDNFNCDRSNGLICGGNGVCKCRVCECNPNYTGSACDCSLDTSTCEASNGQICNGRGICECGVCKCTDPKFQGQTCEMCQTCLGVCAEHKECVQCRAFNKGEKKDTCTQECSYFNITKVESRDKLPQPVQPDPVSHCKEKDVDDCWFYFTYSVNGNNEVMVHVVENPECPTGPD

[6] = target: integrin αvβ6 ectodomain (immobilized) (human, UniProt P06756 31-992; P18564 22-709); assay: cell-based or functional assay
Chain of integrin αvβ6 ectodomain (immobilized) (P06756 31-992, chain 1 of 2): as the sequence (P06756 31-992 limits assumed, chain 1 of 2) above
Chain of integrin αvβ6 ectodomain (immobilized) (P18564 22-709, chain 2 of 2): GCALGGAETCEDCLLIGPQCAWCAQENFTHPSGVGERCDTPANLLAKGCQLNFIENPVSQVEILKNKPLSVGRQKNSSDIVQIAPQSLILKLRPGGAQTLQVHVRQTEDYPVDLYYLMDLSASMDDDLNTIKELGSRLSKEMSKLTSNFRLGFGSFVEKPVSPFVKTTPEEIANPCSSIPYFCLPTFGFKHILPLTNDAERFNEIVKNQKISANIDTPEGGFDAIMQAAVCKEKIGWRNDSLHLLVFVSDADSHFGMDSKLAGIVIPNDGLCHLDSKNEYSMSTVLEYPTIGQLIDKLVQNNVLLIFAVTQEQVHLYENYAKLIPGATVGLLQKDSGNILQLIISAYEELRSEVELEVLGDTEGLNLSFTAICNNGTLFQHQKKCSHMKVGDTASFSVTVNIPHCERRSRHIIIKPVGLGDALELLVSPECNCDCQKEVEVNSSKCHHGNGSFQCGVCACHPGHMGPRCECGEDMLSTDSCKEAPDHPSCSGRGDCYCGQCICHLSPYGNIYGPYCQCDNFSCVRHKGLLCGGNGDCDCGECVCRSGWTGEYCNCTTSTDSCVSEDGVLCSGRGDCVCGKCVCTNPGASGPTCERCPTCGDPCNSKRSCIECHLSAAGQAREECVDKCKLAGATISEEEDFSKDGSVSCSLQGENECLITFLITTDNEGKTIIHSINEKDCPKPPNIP

[7] = target: T1, recombinant human integrin αvβ8 …; assay: cell-based or functional assay; remark: listed apart in the source
[8] = target: T4, integrin αvβ3 on HEK 293 cells stably expressing αvβ3 (Homo sapiens (Human), UniProt P06756 31-1048; P05106 27-788); assay: flow cytometry on HEK 293 cells stably expressing αvβ3
T4 construct: also called αvβ3 expressing 293 cells
From the text: A) Binding of anti-β3 (AP3) relative to F12 IgG4, H4C8 RGD1 IgG4,H4C8 RGD3 IgG4, H3C8 RGD3 with VL Fr4 V108/L109 (mouse) IgG4, H4C8 RGD3 IgG4, H3C8 RGD3 VL Fr4 K108/V109 (human) IgG4, H4C8 RGD1 VH Fr3 E72, H4C8 RGD3 VH Fr3 E72 IgG4. HEK 293 cells stably expressing αvβ3 were stained and the percentage of relative binding to the mean fluorescence intensity of AP3 is shown, B) Expi293 cells transiently expressing αvβ6 were stained and the percentage of relative binding to the mean fluorescence intensity of 3G9 is shown, C) HEK 293 cells stably expressing αvβ8 were stained and the percentage of relative binding to the mean fluorescence intensity of HuF12 is shown. All primary antibodies were used at 2.5 ug/ml. […] Binding or 3G9 is shown and percent binding of antibodies relative to 3G9 binding to αvβ6 is shown. Dotted line indicate binding observed with each positive control antibody,
RGD ligands bind promiscuously to a number of integrins. A highly desirable quality in RGD-mimetics is to retain specificity for some but not all integrins. One highly desirable property would be a dual inhibitor to both the αvβ8- and αvβ6-integrins, without cross-reactivity to other integrins. This property would facilitate specific targeting of integrin-mediated TGF-β activation without the liability of side-effects mediated by broadly blocking other integrins. We first measured binding to αvβ3 expressing 293 cells. Binding of anti-β3 (AP3) relative to F12 IgG4, H4C8 RGD1 IgG4,H4C8 RGD3 IgG4, H3C8 RGD3 with VL Fr4 V108/L109 (mouse) IgG4, H4C8 RGD3 IgG4, H3C8 RGD3 VI Fr4 K108/V109 (human) IgG4, H4C8 RGD1 Vh Fr3 E72, H4C8 RGD3 Vh Fr3 E72 IgG4. […] Expi293 cells transiently expressing αvβ6 were stained and the percentage of relative binding to the mean fluorescence intensity of anti-β6 (3G9) determined.

[9] = target: T2, integrin αvβ5 ectodomain (immobilized); assay: binding to immobilized ectodomains
[10] = target: T3, integrin αvβ1 ectodomain (immobilized); assay: binding to immobilized ectodomains
[11] = target: T1, recombinant human integrin αvβ8 …; assay: KinExA; antibody format and antigen form not stated

T1 sequence (P06756 31-992 limits assumed, chain 1 of 2): as the sequence (P06756 31-992 limits assumed, chain 1 of 2) above
T1 sequence (P26012 43-681 limits assumed, chain 2 of 2): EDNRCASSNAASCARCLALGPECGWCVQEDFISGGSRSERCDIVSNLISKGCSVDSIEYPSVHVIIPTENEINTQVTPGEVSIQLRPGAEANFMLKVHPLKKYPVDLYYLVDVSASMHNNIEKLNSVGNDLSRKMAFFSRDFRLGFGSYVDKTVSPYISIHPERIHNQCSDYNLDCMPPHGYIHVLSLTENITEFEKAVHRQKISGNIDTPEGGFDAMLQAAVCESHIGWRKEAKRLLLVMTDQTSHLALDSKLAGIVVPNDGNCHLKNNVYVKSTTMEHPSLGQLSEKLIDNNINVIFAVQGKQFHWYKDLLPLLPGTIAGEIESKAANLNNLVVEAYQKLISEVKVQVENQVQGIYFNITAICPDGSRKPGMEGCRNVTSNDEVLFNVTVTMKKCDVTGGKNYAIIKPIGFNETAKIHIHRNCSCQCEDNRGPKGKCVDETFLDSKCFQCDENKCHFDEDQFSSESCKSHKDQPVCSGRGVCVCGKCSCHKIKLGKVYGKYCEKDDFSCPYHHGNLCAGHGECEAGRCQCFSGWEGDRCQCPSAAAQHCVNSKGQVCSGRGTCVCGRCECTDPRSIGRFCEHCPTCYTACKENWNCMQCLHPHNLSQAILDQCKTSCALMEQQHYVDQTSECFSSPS

| ED50 of the inhibition of αvβ8-mediated TGF-β activation (immobilized αvβ8, TMLC GARP/L-TGF-β reporter cells) [1] | IC50 of the inhibition of TGF-β activation (TMLC GARP/TGF-β1 reporter cells on αvβ8-coated wells) [2] | EC50 of inhibition of αvβ8-mediated TGF-β activation [3] | binding result [4] | binding result [5] | ED50 of the inhibition of αvβ6-mediated TGF-β activation (immobilized human αvβ6, TMLC GARP/L-TGF-β reporter cells) [6] | ED50 of the inhibition of αvβ8-mediated TGF-β activation (immobilized human αvβ8, TMLC GARP/L-TGF-β reporter cells) [7] | binding result [8] | further results | Binder |
| --- | --- | --- | --- | --- | --- | --- | --- | --- | --- |
| 0.23 µg/mL | 3.1 µg/mL | 230 nM | – | – | – | – | – | – | HuC6D4 IgG2a (antibody, V domains shown) VH: QIQLVQSGAEVKKPGASVKISCKASGYTFTDYSMHWVRQAPGQGLEWVARINTETGEPTFADDFRGRFTVTLDTSTSTAYLEIRSLRSDDTAVYFCAIFYYGRDTWGQGTTLTVSS VL: EIVMTQSPATLSVSPGERVTMSCKSSQSLLNSRSRKNYLAWYQQKPGQAPRLLIYWASTRESGVPARFSGSGSGTEFTLTISSVQSEDFAVYYCKQSYNLLSFGQGTVLEIKR |
| 0.03 µg/mL | – | 300 nM | – | – | – | – | – | – | H4C8m (H4C8 with non-humanized, murine VL Fr4), human IgG4 (antibody, V domains shown) VH: QVQLVQSGAEVKKPGASVKVSCKVSGYTLTRQSMHWVRQAPGKGLEWMGRINTETGEPTYAQKFQGRVTMTQDTSTDTAYMELSSLRSEDTAVYFCAIFYYGRDTWGQGTTVTVSS VL: EIVMTQSPATLSVSPGERVTLSCRSSQSLLHSRSRKNYLAWYQQKPGQAPRLLIYWASTRETGVPARFSGSGSGTEFTLTISSLQSEDFAVYYCKQSYNLLSFGQGTVLEIKR |
| 0.25 µg/mL | – | 250 nM | – | – | – | – | – | – | H3.C12, human IgG4 (antibody, V domains shown) VH: QVQLVQSGAEVKKPGASVKVSCKVSGYTLTEQSMHWVRQAPGKGLEWMGRINTETGEPTYAQKFQGRVTMTQDTSTDTAYMELSSLRSEDTAVYFCAIFYYGRDTWGQGTTVTVSS VL: EIVMTQSPATLSVSPGERVTMSCRSSQSLLHSRTRKNYLAWYQQKPGQAPRLLIYWASTRETGVPARFSGSGSGTEFTLTISSLQSEDFAVYYCKQSYNLLSFGQGTVLEIKR |
| – | 1.15 µg/mL | – | – | – | – | – | – | – | huC6D4 VH with huF12 VL, murine IgG2a (antibody, V domains shown) VH: QIQLVQSGAEVKKPGASVKISCKASGYTFTDYSMHWVRQAPGQGLEWVARINTETGEPTFADDFRGRFTVTLDTSTSTAYLEIRSLRSDDTAVYFCAIFYYGRDTWGQGTTLTVSS VL: EIVMTQSPATLSVSPGERVTMSCKSSQSLLHSRSRKNYLAWYQQKPGQAPRLLIYWASTRESGVPARFSGSGSGTEFTLTISSVQSEDFAVYYCKQSYNLLSFGQGTVLEIKR |
| – | – | – | no binding | no binding | 1.54 µg/mL | 3.3 µg/mL | – | – | HuC6D4 RGD3, mouse IgG2a (antibody, V domains shown, Mouse IgG2a) VH: QIQLVQSGAEVKKPGASVKISCKASGYTFTDYSMHWVRQAPGQGLEWVARINTETGEPTFADDFRGRFTVTLDTSTSTAYLEIRSLRSDDTAVYFCAIFYYGRDTWGQGTTLTVSS VL: EIVMTQSPATLSVSPGERVTMSCKSSQSLLGRGDLGRLKKNALAWYQQKPGQAPRLLIYWASTRESGVPARFSGSGSGTEFTLTISSVQSEDFAVYYCKQSYNLLSFGQGTVLEIKR |
| – | – | – | no binding | no binding | 0.03 µg/mL | 0.02 µg/mL | no binding (tested: 2.5 µg/ml) | – | H4C8 RGD3, human IgG4 (antibody, V domains shown, also called H4C8 RGD3 IgG4) VH: QVQLVQSGAEVKKPGASVKVSCKVSGYTLTRQSMHWVRQAPGKGLEWMGRINTETGEPTYAQKFQGRVTMTQDTSTDTAYMELSSLRSEDTAVYFCAIFYYGRDTWGQGTTVTVSS VL: EIVMTQSPATLSVSPGERVTLSCKSSQSLLGRGDLGRLKKNALAWYQQKPGQAPRLLIYWASTRETGVPARFSGSGSGTEFTLTISSLQSEDFAVYYCKQSYNLLSFGQGTKVEIKR |
| – | – | – | – | – | 0.07 µg/mL | 0.84 µg/mL | no binding (tested: 2.5 µg/ml) | binding result [9]: no binding; binding result [10]: no binding | H3C8 RGD3, human IgG4 (VL Fr4 K108/V109, human) (antibody, V domains shown, also called H3C8 RGD3 VL Fr4 K108/V109 (human) IgG4) VH: QVQLVQSGAEVKKPGASVKVSCKVSGYTLTEQSMHWVRQAPGKGLEWMGRINTETGEPTYAQKFQGRVTMTQDTSTDTAYMELSSLRSEDTAVYFCAIFYYGRDTWGQGTTVTVSS VL: EIVMTQSPATLSVSPGERVTLSCKSSQSLLGRGDLGRLKKNALAWYQQKPGQAPRLLIYWASTRETGVPARFSGSGSGTEFTLTISSLQSEDFAVYYCKQSYNLLSFGQGTKVEIKR |
| – | – | – | no binding | no binding | 0.04 µg/mL | 0.07 µg/mL | no binding (tested: 2.5 µg/ml) | – | H4C8 RGD1, human IgG4 (antibody, V domains shown, also called H4C8 RGD1 IgG4) VH: QVQLVQSGAEVKKPGASVKVSCKVSGYTLTRQSMHWVRQAPGKGLEWMGRINTETGEPTYAQKFQGRVTMTQDTSTDTAYMELSSLRSEDTAVYFCAIFYYGRDTWGQGTTVTVSS VL: EIVMTQSPATLSVSPGERVTLSCKSSQSLLRRGDLATIHGNALAWYQQKPGQAPRLLIYWASTRETGVPARFSGSGSGTEFTLTISSLQSEDFAVYYCKQSYNLLSFGQGTKVEIKR |
| – | 0.337 µg/mL | – | – | – | – | – | – | – | huF12 VH with huC6D4 VL, murine IgG2a (antibody, V domains shown) VH: QIQLVQSGAEVKKPGASVKISCKASGYTFTKYSMHWVRQAPGQGLEWVARINTETGEPTFADDFRGRFTVTLDTSTSTAYLEIRSLRSDDTAVYFCAIFYYGRDTWGQGTTLTVSS VL: EIVMTQSPATLSVSPGERVTMSCKSSQSLLNSRSRKNYLAWYQQKPGQAPRLLIYWASTRESGVPARFSGSGSGTEFTLTISSVQSEDFAVYYCKQSYNLLSFGQGTVLEIKR |
| – | – | – | – | – | – | – | – | Kd [11]: 0.0821 nM | HuC6D4 (format not stated) (antibody, V domains shown) VH: QIQLVQSGAEVKKPGASVKISCKASGYTFTDYSMHWVRQAPGQGLEWVARINTETGEPTFADDFRGRFTVTLDTSTSTAYLEIRSLRSDDTAVYFCAIFYYGRDTWGQGTTLTVSS VL: EIVMTQSPATLSVSPGERVTMSCKSSQSLLNSRSRKNYLAWYQQKPGQAPRLLIYWASTRESGVPARFSGSGSGTEFTLTISSVQSEDFAVYYCKQSYNLLSFGQGTVLEIKR |
